Measurements taken from the supplement of paper PMC10567573.

B1: MFF (parent)
chain: YTEGISQRMRVPEKLKVAPPNADL

Variants of: B1
Assay: protein stability index of a GFP-peptide fusion (GPS, HEK-293T) (PSI 1-6); higher = more stable
Conditions: c terminus: a fixed tail appended
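Further: lentivirally expressed fusions sorted by FACS into six bins by GFP to DsRed ratio, PSI derived from sequencing read proportions per bin multiplied by bin number.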

Variant	protein stability index
YTEHISQRMRVPEKLKVAPPNADL [G4H]	3.46
YTEIISQRMRVPEKLKVAPPNADL [G4I]	3
YTEKISQRMRVPEKLKVAPPNADL [G4K]	3.63
YTELISQRMRVPEKLKVAPPNADL [G4L]	2.47
YTEMISQRMRVPEKLKVAPPNADL [G4M]	2.52
YTENISQRMRVPEKLKVAPPNADL [G4N]	3.75
YTEPISQRMRVPEKLKVAPPNADL [G4P]	3.79
YTEQISQRMRVPEKLKVAPPNADL [G4Q]	3.5
YTERISQRMRVPEKLKVAPPNADL [G4R]	3.72
YTESISQRMRVPEKLKVAPPNADL [G4S]	3.88
YTETISQRMRVPEKLKVAPPNADL [G4T]	3.45
YTEVISQRMRVPEKLKVAPPNADL [G4V]	3.21
YTEWISQRMRVPEKLKVAPPNADL [G4W]	2.25
YTEYISQRMRVPEKLKVAPPNADL [G4Y]	2.69
YTEGASQRMRVPEKLKVAPPNADL [I5A]	4.19
YTEGCSQRMRVPEKLKVAPPNADL [I5C]	4.16
YTEGDSQRMRVPEKLKVAPPNADL [I5D]	4.55
YTEGESQRMRVPEKLKVAPPNADL [I5E]	4.78
YTEGFSQRMRVPEKLKVAPPNADL [I5F]	2.13
YTEGGSQRMRVPEKLKVAPPNADL [I5G]	3.72
YTEGHSQRMRVPEKLKVAPPNADL [I5H]	3.81
YTEGKSQRMRVPEKLKVAPPNADL [I5K]	4.18
YTEGLSQRMRVPEKLKVAPPNADL [I5L]	3.06
YTEGMSQRMRVPEKLKVAPPNADL [I5M]	3.4

Variant	protein stability index
YTEGNSQRMRVPEKLKVAPPNADL [I5N]	4.03
YTEGPSQRMRVPEKLKVAPPNADL [I5P]	4.33
YTEGQSQRMRVPEKLKVAPPNADL [I5Q]	4.44
YTEGRSQRMRVPEKLKVAPPNADL [I5R]	3.78
YTEGSSQRMRVPEKLKVAPPNADL [I5S]	4.16
YTEGTSQRMRVPEKLKVAPPNADL [I5T]	3.9
YTEGVSQRMRVPEKLKVAPPNADL [I5V]	3.63
YTEGWSQRMRVPEKLKVAPPNADL [I5W]	2.75
YTEGYSQRMRVPEKLKVAPPNADL [I5Y]	2.41
YTEGIAQRMRVPEKLKVAPPNADL [S6A]	2.76
YTEGICQRMRVPEKLKVAPPNADL [S6C]	2.6
YTEGIDQRMRVPEKLKVAPPNADL [S6D]	3.51
YTEGIEQRMRVPEKLKVAPPNADL [S6E]	3.91
YTEGIFQRMRVPEKLKVAPPNADL [S6F]	2.14
YTEGIGQRMRVPEKLKVAPPNADL [S6G]	2.86
YTEGIHQRMRVPEKLKVAPPNADL [S6H]	2.63
YTEGIIQRMRVPEKLKVAPPNADL [S6I]	2.51
YTEGIKQRMRVPEKLKVAPPNADL [S6K]	2.45
YTEGILQRMRVPEKLKVAPPNADL [S6L]	2.85
YTEGIMQRMRVPEKLKVAPPNADL [S6M]	2.09
YTEGINQRMRVPEKLKVAPPNADL [S6N]	2.93
YTEGIPQRMRVPEKLKVAPPNADL [S6P]	2.29
YTEGIQQRMRVPEKLKVAPPNADL [S6Q]	2.71
YTEGIRQRMRVPEKLKVAPPNADL [S6R]	2.94

Variant	protein stability index
YTEGITQRMRVPEKLKVAPPNADL [S6T]	2.98
YTEGIVQRMRVPEKLKVAPPNADL [S6V]	2.19
YTEGIWQRMRVPEKLKVAPPNADL [S6W]	2.52
YTEGIYQRMRVPEKLKVAPPNADL [S6Y]	3.1
YTEGISARMRVPEKLKVAPPNADL [Q7A]	2.97
YTEGISCRMRVPEKLKVAPPNADL [Q7C]	2.9
YTEGISDRMRVPEKLKVAPPNADL [Q7D]	3.43
YTEGISERMRVPEKLKVAPPNADL [Q7E]	3.26
YTEGISFRMRVPEKLKVAPPNADL [Q7F]	1.82
YTEGISGRMRVPEKLKVAPPNADL [Q7G]	2.65
YTEGISHRMRVPEKLKVAPPNADL [Q7H]	1.81
YTEGISIRMRVPEKLKVAPPNADL [Q7I]	2.85
YTEGISKRMRVPEKLKVAPPNADL [Q7K]	2.39
YTEGISLRMRVPEKLKVAPPNADL [Q7L]	2.77
YTEGISMRMRVPEKLKVAPPNADL [Q7M]	2.59
YTEGISNRMRVPEKLKVAPPNADL [Q7N]	2.74
YTEGISPRMRVPEKLKVAPPNADL [Q7P]	3.4
YTEGISRRMRVPEKLKVAPPNADL [Q7R]	2.81
YTEGISSRMRVPEKLKVAPPNADL [Q7S]	2.45
YTEGISTRMRVPEKLKVAPPNADL [Q7T]	2.71
YTEGISVRMRVPEKLKVAPPNADL [Q7V]	3.21
YTEGISWRMRVPEKLKVAPPNADL [Q7W]	2.21
YTEGISYRMRVPEKLKVAPPNADL [Q7Y]	1.75
YTEGISQAMRVPEKLKVAPPNADL [R8A]	2.82

Variant	protein stability index
YTEGISQCMRVPEKLKVAPPNADL [R8C]	2.47
YTEGISQDMRVPEKLKVAPPNADL [R8D]	3.76
YTEGISQEMRVPEKLKVAPPNADL [R8E]	3.6
YTEGISQFMRVPEKLKVAPPNADL [R8F]	1.95
YTEGISQGMRVPEKLKVAPPNADL [R8G]	2.47
YTEGISQHMRVPEKLKVAPPNADL [R8H]	2.28
YTEGISQIMRVPEKLKVAPPNADL [R8I]	1.57
YTEGISQKMRVPEKLKVAPPNADL [R8K]	2.52
YTEGISQLMRVPEKLKVAPPNADL [R8L]	2.2
YTEGISQMMRVPEKLKVAPPNADL [R8M]	2.16
YTEGISQNMRVPEKLKVAPPNADL [R8N]	3.18
YTEGISQPMRVPEKLKVAPPNADL [R8P]	2.81
YTEGISQQMRVPEKLKVAPPNADL [R8Q]	2.79
YTEGISQSMRVPEKLKVAPPNADL [R8S]	2.43
YTEGISQTMRVPEKLKVAPPNADL [R8T]	2.76
YTEGISQVMRVPEKLKVAPPNADL [R8V]	2.6
YTEGISQWMRVPEKLKVAPPNADL [R8W]	2.3
YTEGISQYMRVPEKLKVAPPNADL [R8Y]	1.75
YTEGISQRARVPEKLKVAPPNADL [M9A]	2.41
YTEGISQRCRVPEKLKVAPPNADL [M9C]	2.49
YTEGISQRDRVPEKLKVAPPNADL [M9D]	3.57
YTEGISQRERVPEKLKVAPPNADL [M9E]	2.89
YTEGISQRFRVPEKLKVAPPNADL [M9F]	3.02
YTEGISQRGRVPEKLKVAPPNADL [M9G]	2.89

Variant	protein stability index
YTEGISQRHRVPEKLKVAPPNADL [M9H]	3.17
YTEGISQRIRVPEKLKVAPPNADL [M9I]	2.2
YTEGISQRKRVPEKLKVAPPNADL [M9K]	3.37
YTEGISQRLRVPEKLKVAPPNADL [M9L]	3.22
YTEGISQRNRVPEKLKVAPPNADL [M9N]	2.96
YTEGISQRPRVPEKLKVAPPNADL [M9P]	3.27
YTEGISQRQRVPEKLKVAPPNADL [M9Q]	2.79
YTEGISQRRRVPEKLKVAPPNADL [M9R]	2.54
YTEGISQRSRVPEKLKVAPPNADL [M9S]	2.55
YTEGISQRTRVPEKLKVAPPNADL [M9T]	2.74
YTEGISQRVRVPEKLKVAPPNADL [M9V]	2.35
YTEGISQRWRVPEKLKVAPPNADL [M9W]	2.01
YTEGISQRYRVPEKLKVAPPNADL [M9Y]	2.57
YTEGISQRMAVPEKLKVAPPNADL [R10A]	2.17
YTEGISQRMCVPEKLKVAPPNADL [R10C]	2.74
YTEGISQRMDVPEKLKVAPPNADL [R10D]	2.71
YTEGISQRMEVPEKLKVAPPNADL [R10E]	2.83
YTEGISQRMFVPEKLKVAPPNADL [R10F]	1.44
YTEGISQRMGVPEKLKVAPPNADL [R10G]	2.83
YTEGISQRMHVPEKLKVAPPNADL [R10H]	2.52
YTEGISQRMIVPEKLKVAPPNADL [R10I]	2.97
YTEGISQRMKVPEKLKVAPPNADL [R10K]	3.16
YTEGISQRMLVPEKLKVAPPNADL [R10L]	3.06
YTEGISQRMMVPEKLKVAPPNADL [R10M]	2.48

Variant	protein stability index
YTEGISQRMNVPEKLKVAPPNADL [R10N]	2.59
YTEGISQRMPVPEKLKVAPPNADL [R10P]	3.44
YTEGISQRMQVPEKLKVAPPNADL [R10Q]	3.11
YTEGISQRMSVPEKLKVAPPNADL [R10S]	2.72
YTEGISQRMTVPEKLKVAPPNADL [R10T]	2.6
YTEGISQRMVVPEKLKVAPPNADL [R10V]	2.49
YTEGISQRMWVPEKLKVAPPNADL [R10W]	3.33
YTEGISQRMYVPEKLKVAPPNADL [R10Y]	2.08
YTEGISQRMRAPEKLKVAPPNADL [V11A]	2.89
YTEGISQRMRCPEKLKVAPPNADL [V11C]	2.8
YTEGISQRMRDPEKLKVAPPNADL [V11D]	2.75
YTEGISQRMREPEKLKVAPPNADL [V11E]	2.84
YTEGISQRMRFPEKLKVAPPNADL [V11F]	2.7
YTEGISQRMRGPEKLKVAPPNADL [V11G]	2.9
YTEGISQRMRHPEKLKVAPPNADL [V11H]	2.96
YTEGISQRMRIPEKLKVAPPNADL [V11I]	2.96
YTEGISQRMRKPEKLKVAPPNADL [V11K]	2.76
YTEGISQRMRLPEKLKVAPPNADL [V11L]	2.59
YTEGISQRMRMPEKLKVAPPNADL [V11M]	3.11
YTEGISQRMRNPEKLKVAPPNADL [V11N]	2.91
YTEGISQRMRPPEKLKVAPPNADL [V11P]	2.78
YTEGISQRMRQPEKLKVAPPNADL [V11Q]	2.62
YTEGISQRMRRPEKLKVAPPNADL [V11R]	2.48
YTEGISQRMRSPEKLKVAPPNADL [V11S]	3.29

Variant	protein stability index
YTEGISQRMRTPEKLKVAPPNADL [V11T]	3.24
YTEGISQRMRWPEKLKVAPPNADL [V11W]	2.18
YTEGISQRMRYPEKLKVAPPNADL [V11Y]	2.6
YTEGISQRMRVAEKLKVAPPNADL [P12A]	3.06
YTEGISQRMRVCEKLKVAPPNADL [P12C]	2.14
YTEGISQRMRVDEKLKVAPPNADL [P12D]	2.73
YTEGISQRMRVEEKLKVAPPNADL [P12E]	2.69
YTEGISQRMRVFEKLKVAPPNADL [P12F]	1.88
YTEGISQRMRVGEKLKVAPPNADL [P12G]	2.46
YTEGISQRMRVHEKLKVAPPNADL [P12H]	2.77
YTEGISQRMRVIEKLKVAPPNADL [P12I]	2.21
YTEGISQRMRVKEKLKVAPPNADL [P12K]	2.57
YTEGISQRMRVLEKLKVAPPNADL [P12L]	2.42
YTEGISQRMRVMEKLKVAPPNADL [P12M]	2.59
YTEGISQRMRVNEKLKVAPPNADL [P12N]	2.96
YTEGISQRMRVQEKLKVAPPNADL [P12Q]	2.78
YTEGISQRMRVREKLKVAPPNADL [P12R]	2.82
YTEGISQRMRVSEKLKVAPPNADL [P12S]	2.53
YTEGISQRMRVTEKLKVAPPNADL [P12T]	2.09
YTEGISQRMRVVEKLKVAPPNADL [P12V]	2.64
YTEGISQRMRVWEKLKVAPPNADL [P12W]	2.46
YTEGISQRMRVYEKLKVAPPNADL [P12Y]	2.58
YTEGISQRMRVPAKLKVAPPNADL [E13A]	2.95
YTEGISQRMRVPCKLKVAPPNADL [E13C]	2.53

Variant	protein stability index
YTEGISQRMRVPDKLKVAPPNADL [E13D]	2.86
YTEGISQRMRVPFKLKVAPPNADL [E13F]	2.35
YTEGISQRMRVPGKLKVAPPNADL [E13G]	2.18
YTEGISQRMRVPHKLKVAPPNADL [E13H]	2.98
YTEGISQRMRVPIKLKVAPPNADL [E13I]	2.49
YTEGISQRMRVPKKLKVAPPNADL [E13K]	2.2
YTEGISQRMRVPLKLKVAPPNADL [E13L]	2.33
YTEGISQRMRVPMKLKVAPPNADL [E13M]	2.64
YTEGISQRMRVPNKLKVAPPNADL [E13N]	2.53
YTEGISQRMRVPPKLKVAPPNADL [E13P]	2.65
YTEGISQRMRVPQKLKVAPPNADL [E13Q]	2.65
YTEGISQRMRVPRKLKVAPPNADL [E13R]	2.9
YTEGISQRMRVPSKLKVAPPNADL [E13S]	3.18
YTEGISQRMRVPTKLKVAPPNADL [E13T]	2.57
YTEGISQRMRVPVKLKVAPPNADL [E13V]	2.79
YTEGISQRMRVPWKLKVAPPNADL [E13W]	2.16
YTEGISQRMRVPYKLKVAPPNADL [E13Y]	2.54
YTEGISQRMRVPEALKVAPPNADL [K14A]	3.06
YTEGISQRMRVPECLKVAPPNADL [K14C]	3.07
YTEGISQRMRVPEDLKVAPPNADL [K14D]	3.13
